The results in this text go back to patent US20120316071A1.

Experiment [1] has as its target rHuman P-Cadherin/Fc Chimera, CF (human) (UniProt P22223). The experiment can be described thus: ECL Multispot (MSD) assay; antigen spotted on plate, Fab in solution.
Experiment [2] deals with human Delta-like ligand 4 (DLL4), full-length, expressed on CHO cells (human) (UniProt Q9NR61). The experiment can be described thus: cell-based or functional assay.
Experiment [3] concerns the target human DLL4, full-length, expressed on the surface of CHO cells (human) (UniProt Q9NR61). The experiment can be described thus: cell-based or functional assay.
In experiment [4] the target is rHuman P-Cadherin/Fc Chimera, CF (R&D Systems Cat#861-PC) (human) (UniProt P22223). The experiment can be described thus: ECL multispot (MSD) binding assay, antigens spotted on plate, 20 nM Fab.
In experiment [5] the target is rHuman Notch-1/Fc Chimera, CF (R&D Systems Cat#3647-TK) (human) (UniProt P46531). The experiment is described as above.
Experiment [6] concerns the target rHuman Erythropoietin R/Fc Chimera, CF (R&D Systems Cat#963-ER) (human) (UniProt P19235). The experiment is described as above.
Experiment [7] addresses rHuman HGF R/c-MET/Fc Chimera, CF (R&D Systems Cat#358-MT/CF) (human) (UniProt P08581). The experiment can be described thus: ECL Multispot (MSD), antigen spotted, Fab.
Experiment [8] deals with rHuman IGF-1 sR, CF (R&D Systems Cat#391-GR) (human) (UniProt P08069). The experiment in a line: ECL Multispot (MSD), antigen spotted, Fab.
Experiment [9] concerns the target Recombinant Human DLL4 (R&D Systems Cat#1506-D4/CF) (human) (UniProt Q9NR61). The experiment can be described thus: ECL Multispot (MSD), antigen spotted, Fab.
For experiment [10], the target named is rHuman Notch-1/Fc Chimera, CF (R&D Systems Cat#3647-TK) (human) (UniProt P46531). The experiment in a line: ECL Multispot (MSD), antigen spotted, Fab.
Experiment [11] has as its target rHuman HGF R/c-MET/Fc Chimera, CF (R&D Systems Cat#358-MT/CF) (human) (UniProt P08581). The experiment can be described thus: ECL multispot (MSD), antigen spotted, Fab in solution.
Experiment [12] concerns the target rHuman P-Cadherin/Fc Chimera, CF (R&D Systems Cat#861-PC) (human) (UniProt P22223). Described as above.
Experiment [13] has as its target rHuman IGF-1 sR, CF (R&D Systems Cat#391-GR) (human) (UniProt P08069). The experiment is described as above.
Experiment [14] addresses rHuman CD44/Fc Chimera, CF (R&D Systems Cat#3660-CD) (human) (UniProt P16070). Described as above.
The target in experiment [15] is rHuman Erythropoietin R/Fc Chimera, CF (R&D Systems Cat#963-ER) (human) (UniProt P19235). The experiment is described as above.
Experiment [16] addresses Recombinant Human DLL4 (R&D Systems Cat#1506-D4/CF) (human) (UniProt Q9NR61). Described as above.
Experiment [17] concerns the target rHuman Notch-1/Fc Chimera, CF (R&D Systems Cat#3647-TK) (human) (UniProt P46531). Described as above.
In experiment [18] the target is rHuman HGF R/c-MET/Fc Chimera, CF (R&D Systems Cat#358-MT/CF) (human) (UniProt P08581). The experiment in a line: ECL multispot (MSD) binding assay, antigen spotted on plate, Fab 0.04 uM.
The target of experiment [19] is rHuman IGF-1 sR, CF (R&D Systems Cat#391-GR) (human) (UniProt P08069). The experiment is described as above.
Experiment [20] addresses rHuman Notch-1/Fc Chimera, CF (R&D Systems Cat#3647-TK) (human) (UniProt P46531). The experiment is described as above.
Experiment [21] deals with rHuman CD44/Fc Chimera, CF (R&D Systems Cat#3660-CD) (human) (UniProt P16070). Described as above.
Experiment [22] concerns the target rHuman Erythropoietin R/Fc Chimera, CF (R&D Systems Cat#963-ER) (human) (UniProt P19235). Described as above.
Experiment [23] addresses rHuman CD44/Fc Chimera, CF (R&D Systems Cat#3660-CD) (human) (UniProt P16070). The experiment can be described thus: MSD Multispot ECL, antigen spotted on plate, Fab in solution; blank spot of the row 240.
The target in experiment [24] is rHuman ErbB2/Fc Chimera, CF (R&D Systems Cat#1129-ER) (human) (UniProt P04626). Described as above.
For experiment [25], the target named is rHuman IGF-1 sR, (IGF-1 sR), CF (R&D Systems Cat#391-GR) (human) (UniProt P08069). Described as above.

The substance “Fab VH1-46_IGHD6-6*01_IGHJ1*01 S102A/S103P/S104F/H111F (APFF) & L6_IGKJ1*01 S28Q” had an ECL signal in [1] of 809.
The same measure, in the same setting: the value for “Fab VH1-46_IGHD6-6*01_IGHJ1*01 S102A/S103P/S104F/H111F (APFF) & L6_IGKJ1*01 S28T” was 676.
As to “Fab VH1-46_IGHD6-6*01_IGHJ1*01 S102A/S103P/S104F/H111F I51V/N52L/S54T/G56H & L6_IGKJ1*01 S28N/S30D/S31H S52L/A55S”, in [2], the Notch1 luciferase reporter luminescence, T98G reporter cells + CHO-DLL4, 0.8 nM Fab, replicate 1 stood at 4740; the Notch1 luciferase reporter luminescence, T98G reporter cells + CHO-DLL4, 0.8 nM Fab, replicate 2 worked out at 4890; the Notch1 luciferase reporter luminescence, T98G reporter cells + CHO-DLL4, 0.8 nM Fab, replicate 3 turned out to be 3820; the Notch1 luciferase reporter luminescence, T98G reporter cells + CHO-DLL4, 0.8 nM Fab, replicate 4 turned out to be 4080. For the same substance, in experiment [2], the Notch1 luciferase reporter luminescence, T98G reporter cells + CHO-DLL4, 4 nM Fab, replicate 1 was determined as 4840; the Notch1 luciferase reporter luminescence, T98G reporter cells + CHO-DLL4, 4 nM Fab, replicate 2 turned out to be 4880; the Notch1 luciferase reporter luminescence, T98G reporter cells + CHO-DLL4, 4 nM Fab, replicate 3 amounted to 4250; the Notch1 luciferase reporter luminescence, T98G reporter cells + CHO-DLL4, 4 nM Fab, replicate 4 amounted to 4670. For the same substance, in [2], the Notch1 luciferase reporter luminescence, T98G reporter cells + CHO-DLL4, 20 nM Fab, replicate 1 is 4380; the Notch1 luciferase reporter luminescence, T98G reporter cells + CHO-DLL4, 20 nM Fab, replicate 2 stood at 4480; the Notch1 luciferase reporter luminescence, T98G reporter cells + CHO-DLL4, 20 nM Fab, replicate 3 was found to be 3960; the Notch1 luciferase reporter luminescence, T98G reporter cells + CHO-DLL4, 20 nM Fab, replicate 4 turned out to be 3990.
In the case of “Fab VH1-46_IGHD6-6*01_IGHJ1*01 S102A/S103P/S104F/H111F I51V/N52L/S54T/G56H (APFF VLTH) & L6_IGKJ1*01 S28N/S30D/S31H S52L/A55S (NDH LS)”, in [3], the Notch1 luciferase reporter luminescence, T98G reporter cells + CHO-DLL4, 100 nM Fab, replicate 1 amounted to 2400; the Notch1 luciferase reporter luminescence, T98G reporter cells + CHO-DLL4, 100 nM Fab, replicate 2 came out at 2280; the Notch1 luciferase reporter luminescence, T98G reporter cells + CHO-DLL4, 100 nM Fab, replicate 3 turned out to be 2150; the Notch1 luciferase reporter luminescence, T98G reporter cells + CHO-DLL4, 100 nM Fab, replicate 4 worked out at 2170.
As to “Fab VH3-23_IGHD2-21*01>3_IGHJ6*01 H100E/S108P/Y113G Y109G & V2-13_IGLJ2*01”, in experiment [4], the ECL multispot signal (ratio to blank; column not labelled) turned out to be 2.7.
“Fab VH3-23_IGHD2-21*01>3_IGHJ6*01 H100E/S108P/Y113G Y110I & V2-13_IGLJ2*01”: the ECL multispot signal (ratio to blank; column not labelled) in experiment [5] is 2.5.
Take “Fab VH3-23_IGHD2-21*01>3_IGHJ6*01 H100E/S108P/Y113G Y110T & V2-13_IGLJ2*01”: the ECL multispot signal (ratio to blank; column not labelled) in experiment [6] worked out at 3.5; in experiment [5], 2.3.
Regarding “Fab VH3-23_IGHD3-10*01>3_IGHJ6*01 Y110R & O12_IGKJ1*01”, the ECL signal/blank ratio in experiment [7] is 3; in experiment [8], 2.5; in experiment [9], 3; in [10] it was 2.8.
Turning to “Fab VH3-23_IGHD3-10*01>3_IGHJ6*01 Y111R & O12_IGKJ1*01”, the ECL signal/blank ratio in [7] was found to be 3.2; in [9] it was 2.9; in [10] it was 3.
Take “Fab VH3-23_IGHD3-10*01>3_IGHJ6*01 Y112P & O12_IGKJ1*01”: the ECL signal/blank ratio worked out at 1.1 in [11]; 1.4 in [12]; 0.8 in experiment [13]; 1.1 in experiment [14]; 0.9 in experiment [15]; 1 in experiment [16]. Besides, the ECL signal/blank ratio in experiment [17] amounted to 1.1.
Turning to “Fab VH5-51_IGHD5-18*01>3_IGHJ4*01 G100K/G104T (H:KT) & V3-4_IGLJ1*01 G95A”, the ECL signal is 999 in experiment [18], 1090 in [19] and 707 in experiment [20].
For “Fab VH5-51_IGHD5-18*01>3_IGHJ4*01 G100K/G104T (H:KT) & V3-4_IGLJ1*01 G97A”, the ECL signal in [18] was 1110; in [19], 1030; in experiment [21] it was 642; in experiment [22] it was 528; in experiment [20], 660.
With “Fab VH5-51_IGHD5-18*01>3_IGHJ4*01 G100K/G104T (H:KT) & V3-4_IGLJ1*01 L92A”, the ECL signal in [19] stood at 959; in [21], 695; in experiment [20], 693.
As for “Fab VH5-51_IGHD5-18*01>3_IGHJ4*01 G100K/G104T (H:KT) & V3-4_IGLJ1*01 M94A”, the ECL signal in experiment [18] turned out to be 1150; in experiment [19], 1090.
On to “Fab VH5-51_IGHD5-18*01>3_IGHJ4*01 G100K/G104T (H:KT) & V3-4_IGLJ1*01 S96A”, for which the ECL signal was 1120 in experiment [18]; 927 in experiment [19]; 678 in experiment [21]; 684 in experiment [22]; 715 in experiment [20].
With “Fab VH5-51_IGHD5-18*01>3_IGHJ4*01 G100K/G104T (H:KT) & V3-4_IGLJ1*01 S99A”, the figures for the ECL signal in [18] and in experiment [19] were 909 and 943, respectively.
For the substance “Fab VH5-51_IGHD5-18*01>3_IGHJ4*01 G100K/G104T (H:KT) & V3-4_IGLJ1*01 V91A”, the ECL signal in experiment [19] stood at 1030.
For “Fab VH5-51_IGHD5-18*01>3_IGHJ4*01 G100K/G104T (H:KT) & V3-4_IGLJ1*01 Y93A”, the ECL signal in [18] came out at 1130; in experiment [19], 1050.
As for “Fab VH5-51_IGHD5-18*01>3_IGHJ4*01 G100K/G104T W33A & V3-4_IGLJ1*01”, the values for the ECL signal in [23], in [24] and in experiment [25] were 513, 921 and 788, respectively.
For the substance “IgG of VH1-46_IGHD6-6*01_IGHJ1*01 S102A/S103P/S104F/H111F I51V/N52L/S54T/G56H (APFF VLTH) & L6_IGKJ1*01 S28N/S30D/S31H S52L/A55S (NDH LS) (antibody)”, in experiment [3], the Notch1 luciferase reporter luminescence, T98G reporter cells + CHO-DLL4, 0.8 nM IgG, replicate 1 was 4440; the Notch1 luciferase reporter luminescence, T98G reporter cells + CHO-DLL4, 0.8 nM IgG, replicate 2 was 4520; the Notch1 luciferase reporter luminescence, T98G reporter cells + CHO-DLL4, 0.8 nM IgG, replicate 3 worked out at 3900; the Notch1 luciferase reporter luminescence, T98G reporter cells + CHO-DLL4, 0.8 nM IgG, replicate 4 is 3980. Further, in [3], the Notch1 luciferase reporter luminescence, T98G reporter cells + CHO-DLL4, 4 nM IgG, replicate 1 worked out at 4260; the Notch1 luciferase reporter luminescence, T98G reporter cells + CHO-DLL4, 4 nM IgG, replicate 2 stood at 3860; the Notch1 luciferase reporter luminescence, T98G reporter cells + CHO-DLL4, 4 nM IgG, replicate 3 came out at 3950; the Notch1 luciferase reporter luminescence, T98G reporter cells + CHO-DLL4, 4 nM IgG, replicate 4 is 3760. Moreover, in experiment [3], the Notch1 luciferase reporter luminescence, T98G reporter cells + CHO-DLL4, 20 nM IgG, replicate 1 amounted to 1250; the Notch1 luciferase reporter luminescence, T98G reporter cells + CHO-DLL4, 20 nM IgG, replicate 2 was 1270; the Notch1 luciferase reporter luminescence, T98G reporter cells + CHO-DLL4, 20 nM IgG, replicate 3 is 1170; the Notch1 luciferase reporter luminescence, T98G reporter cells + CHO-DLL4, 20 nM IgG, replicate 4 came out at 1190. In experiment [3], the Notch1 luciferase reporter luminescence, T98G reporter cells + CHO-DLL4, 100 nM IgG, replicate 1 was 757; the Notch1 luciferase reporter luminescence, T98G reporter cells + CHO-DLL4, 100 nM IgG, replicate 2 was 807; the Notch1 luciferase reporter luminescence, T98G reporter cells + CHO-DLL4, 100 nM IgG, replicate 3 came to 678; the Notch1 luciferase reporter luminescence, T98G reporter cells + CHO-DLL4, 100 nM IgG, replicate 4 is 688.
